Measured values reported in PMC3905752 (Nature chemical biology, 2013).

Target: T1, Cdc34A^FL, full length Cdc34A (residues 1-236) (human, UniProt P49427 1-236)
T1 sequence: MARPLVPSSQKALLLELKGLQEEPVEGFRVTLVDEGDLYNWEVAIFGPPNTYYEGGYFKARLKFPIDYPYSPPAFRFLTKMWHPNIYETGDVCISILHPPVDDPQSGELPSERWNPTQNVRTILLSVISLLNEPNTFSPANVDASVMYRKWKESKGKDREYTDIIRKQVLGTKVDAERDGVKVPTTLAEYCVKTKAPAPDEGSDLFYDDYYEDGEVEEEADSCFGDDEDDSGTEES
Assay: NMR titration

B1: Rbx1^12-108-SSQS, Rbx1 fragment that contains the RING domain (residues 12-108) (domain or fragment)
chain: not shown
- binding result: binds
